# Experimental data as given in the DeepSol protein solubility set.
# Test: soluble on expression in E. coli; label from the status in PepcDB or PDB records
row,Sequence,soluble on expression in E. coli
1,GSPEFPPTIQEIKQKIDSYNSREKHCLGMKLSEDGTYTGFIKVHLKLRRPVTVPAGIRPQSIYDAIKEVNPAATTDKRTSFYLPLDAIKQMHISSTTTVSEVIQGLLDKFMVVDNPQKFALFKRIHKDGQVLFQKLSIADYPLYLRLLAGPDTDVLSFVLKEN,soluble
2,MENKIQELTDKIYREGVEKGNEEAQRLIANAQEEAKKIIEDARKEADSIVAASRKSADELADNTKSELKLFSGQAVNALKSEIATMVTDKLITASVKDFAQDKDYLNAFIVALASKWSVDEPIVISTADAESLKKYFAAHAKALLDKGVTIEQVNGIKTLFTVSPADGSYKVNFGEEEFMNYFKAFLRPQLVEMLF,not soluble
3,MSLSESAPTPRRERVIVGMSGGVDSSVSALLLLQQGYQVEGLFMKNWDEDDGTEYCTAREDLADAQAVCDRIGIKLHTANFAAEYWDNVFEHFLAEYKAGRTPNPDILCNREIKFKAFLDYALMLGADLIATGHYVRRRDRDGRTELLKGLDPNKDQSYFLHAVGGEQIARSLFPVGELEKPEVRAIAEKHGLATAKKKDSTGICFIGERRFTDFLKQYLPAQPGDIETTEGKVIGRHSGLMYHTIGQRQGLGIGGLKEAGDDPWYVLGKDLQRNVLLVGQGNDHPLLFSRALLASRIYWVNPVELERPRRLRAKVRYRQSDQDCVLEKTAEGYRAVFDEPQRAVTPGQSVVFYDGDVCLGGGVIETAEAWDFGGRPEGHHHHHH,soluble
4,GSHMSRLLEDFRNQRYPNLQLRDLANHIVEFSQDQHGSRFIQQKLERATAAEKQMVFSEILAAAYSLMTDVFGNYVIQKFFEFGTPEQKNTLGMQVKGHVLQLALQMYGCRVIQKALESISPEQQQEIVHELDGHVLKCVKDQNGNHVVQKCIECVDPVALQFIINAFKGQVYSLSTHPYGCRVIQRILEHCTAEQTTPILDELHEHTEQLIQDQYGNYVIQHVLEHGKQEDKSILINSVRGKVLVLSQHKFASNVVEKCVTHATRGERTGLIDEVCTFNDNALHVMMKDQYANYVVQKMIDVSEPTQLKKLMTKIRKNMAAL,soluble
5,MFKRVLIANRGEIAVRAIRACRELGLKTVAIYSEADKNSLHVELADEAICIGPPDPSKSYLDIPRIMSALEVSKADAVYPGYGFLSENPKFAEIVEKSGAKFIGPRSEVLAKIGDKVLAKKVAKEVGLPLVPGSDEPLEFSEAVKLASKIGYPVVIKAAAGGGGRGIRIIRDEKELREKFPLAKKEAESAFGDGRLYIEKYVINPKHIEFQVIADEHGNVYVLGERECSIQRRHQKLIEEAPSVSVSEEKRKEISEKVAEFCKRLGYTSAGTVEFLMDEEGNFYFMEMNGRIQVEHPVTEMVTGVDIVKLQLIAAMGEEIKLEKVETNGFAIEFRINAEDPVTFIPSPGQVEKLILPGGPGVRVDTHLYQGYTVPPYYDSLLAKIIVWGNTRQEAIARGKRALGELKIEGKGLKVNTEFHLRVLDQKEFIEGKHDITFVERIMV,soluble
6,MIAITGATGQLGQHVIENLLKTTPASHLVAIVRNPKKAAPLSQRGIAVRQADYANEAALTTALQGVDKLLLISSSEVGQRTAQHRNVIQAAIAAKVKFIAYTSLLHADKSPLALADEHIETEKMLAESGIPHTLLRNGWYTENYLASVPAALKHGVFIGAAGEGKIASAMRADYAAAAARVIREEGHAGNVYELAGDDAWTLSQLADELTHQSGKKIVYQNLSEVDFAAALKGAGLPDGLADMLANSDAGAAKGGLFDDSHTLRKLIGRPTTTLTESLRSVL,not soluble
7,MGSDKIHHHHHHMYLSQLKAGGVICRQGETARLVPGFSSTYDLAKAAIAAKVSITDLIAKQGAGDTVDLAALAASGKLDCPVRHPDAAHMFLTGTGLTHTGSASARDNMHADTAGMSDSMKMFRMGLEGGKPKAGEWGVQPEWFYKGTGVNAIAPGDGLESPSFALDGGEEPEIAGFYVIDNDGTPVRLGFSLANEFSDHVTEKINYLYLAHSKLRPASFGPELLVGDLPANVTGASKILRDGKTVWEKPFLSGEDNMSHTIANLEYHHFKYGLFCQPGDLHVHMFGTATLSFADGFKTVPGDVFEVSASQFGLPLQNPLVVAAETPFAVKTL,not soluble
8,SMKLKSNQTRTYDGDGYKKRAACLCFRNDTEQEVLLVSSSRHPDKWIVPGGGMEPEEEPNVAAAREVCEEAGVKGTLGRLVGIFENRDRKHRTYVYVLIVTEVLEDWEDSVNIGRKREWFKIDDAIQVLQCHKPVQASYFTALQEGCLNSNGTPLVATIGGGDLSPTYSINQSSVSDMR,soluble
9,MIYDVFLNFSGEDVRGTFLNHFFKELERKSIIAFKDNESERSQNLSPELTHAIRESRITVVVFSKNYSSSTWCLNELLQVYECYQSMDLPVIPIFYGLDPSHVRKQTGEFGKNFEKTCRNETEACVYQWRRALCDVSNFLGYHSPNWANEATMIEQVANDVLFKLNLTPSSDFSEFVGIEDHIAAMNSVDKR,soluble
10,MGSDKIHHHHHHMQPDVRHSPKEAFEFAANNGFTHVEILMDHPLYSLENLSFAEVIELKWSYDLDLLIHAPATSTNFISISNEMRKASYKEMSKVCYFAEKCGAEVVTFHIGWNPAFINNGNFYFNKSLFDRHNESVLLNEFLPFVKTCPVQLALENTIMIEDGLERALNEIMGKTTLGLTIDVGHYNIRENPFFLKNFDRVVNMHLHDNDGTADQHLALGRGTVDLSKFNLNRYTGFLTIETREEKSIIESRDYLMRVIV,not soluble
11,MIELKPPDVMPNGNIGTPSQYFLEQIRLCRLPTTVISKLGIQTQKRKKKFGEVDFQYEKTDSCKAEKIKCETIPGVEDELEDPTERVRMNQNPEDNDDGKDDDNDQCEEWERHEALHEDVTEQDRAKPRKYEEEMEVTWEKGGPGLVWYTDKNYWDEREKGTDCDWAWADDWDVDYSVYYEGKSAGDMDAKAAIEMRNDDLMRSGKLEQSAFTKKRNPHNLGTTRKRRNSDGGGSSEKASENLQKGIGGSMLAKMGWKPGTGLGKNEQGRVVPVAVYVEEDGQSSKEKTGFGYRGEKLSRVVQKKTIRHVIASAFDSVTDREQCEDKQSEEELHGEILFRRSEVTKMNKFQVLKLQFPKRNIQKTKTFQNFGKLSKCTQLYRFFLMN,not soluble
12,MKVVILGSGSYSGTPKPLCNCENCSIARRNPAFRRTRFSLYIEEGKILVDPSPDLHYHLERLNKKVENVFITHAHFDHIFGVPDLQVYKKLIISSNTLGIKVAKELSRLAFGSEVPSGYEWRYEELQFWNEYSFDNFRVIHFPVIHSLEIAGGYLFEIKGRRIGVTGDTGPEILKDEKVKKLLEGVDILIVEMTKRESIPGVHLGVSDSIEFAKVVGASYTVFAHISHTNYSHEVLEKRVRESGVQGEVARDFTIIEVLEHHHHHH,not soluble
13,MLVFISNSRLSESEVQKLRDKHLIDDFIQRENKGYDFAAWHDGMEFVGFENLKQYDSVTVMNDTCFGPLWDMAPIYDNYESNPNVDFWGMTNHQGIKAGDIYIHEHLQSYFISFKKRLVESSVFQKFWKSVESFEDVQKVIDNYETLYTKKFRDAGFNYESILNTIPLNDKFFHSNFTIHYPHVLLDTGVPFIKVKTFDLTQHLAPYLLKEIEKRTDYPVELILSHMSDMSLPTPPYLLDRKVIEKSSQTYSDTKKIAVHLHTYYVDLLEDFLKQFENFHFTYDLFLTTDSEDKKAEIQSILDKNGKVARIFITGNRGRDVIPMLKLKDELSAYDYIGHFHTKKSPEYPYWVGDSWRNELFSMLIQPADNIIANLERDDRLGLVIADIPSFFRYTKIVDPWNENRFAEGMNDLWERMDLGRDIDFDKMNTFIMSYGTFIWFKYDALKPLFDLDLQDEEIPAEPIPQHTILHSIERILVYLAWARRYDYAIAKNDIYITPFVDNVVLNIRPDTLPNTYINFDNIGGIKGALKYIIVGPLEHHHHHH,not soluble
14,MKIMGFYSQVILPRLLDWSLSDPTLATYRQELLTDVTGEVLEIGFGTGLNLAYYPSHIHKITTVDVNPGMNTIAQKRIDDSGIKVQQLLLSGENLPMADNTFDSVVSTWTLCSIANVEQALQEVYRVLKPGGKFFFLEHGLSNKPNVQVWQNRLTPIQKVLADGCHLNRNIQQLVEQSFDHVELKRFTPENFPDLMAHFYKGCATKKSILEHHHHHH,soluble
15,MSRQNPVRSTRGNSLRAREAQQAQDAPLFQESSSNVFVVEKVLNKRLTRGGSEYYIKWQGFPESECSWEPIENLQCDRMIQEYEKEAAKRTTRKRRYSPQPSTSSSAELQPSTSDEWAGKTLKTIIGITKAPGELHFLCKFSDDSVHLIPLREANVRFPSQVIKFYETRLVLQGVSPTIPGGMS,not soluble
16,MTQKEISIIHPRPSSIVAALYTLRDLNVDVAILHGPPGCSFKHARLLEEDGIHVVTTGLDENGFVFGGHDRLVEVINKSIELFNPKILGVVGTCASMIIGEEMHDAVLEANPDIPVIEVEVHAGYHNNTRGVLFALESALDAGIIDRKEFERQEYLEHHHHHH,soluble
17,MGSDKIHHHHHHMTLKITKSDEVIEVKNLCVTIYSQPGLGKTSLAFTASRPLLLDFDKGAHRAVDRKDVVQVEDWRDVAGISAGDLAAYDTIVIDTVGKALDTLSADIIRANSKLSYGGALNQQGWGQLGVRFSAFLKLLRSFGKDVVLISHMDEKADGDAIKERLKISGGSKDLVLTDSDVIARISIYNRERHLIFSPTETSFGKDPANIGAMPIPEASAETYATCLSDIITQIKEGMNALSEEQVQRKAEIDWFATKLPEMTSAEEINGVLGRAKKAGKDIQKMVVARAKELGFDFDPEAREYVDPSAALADELDDEIPEFDDADEPESPAMAAE,not soluble
18,AIASEVSCKKRDDYLEWPEYFMAVAFLSAQRSKDPNSQVGACIVNSENKIVGIGYNGMPNGCSDDVLPWRRTAENKLDTKYPYVCHAELNAIMNKNLTDVKGCSMYVALFPCNECAKLIIQAGIKEVIFMSDKYHDSDEATAARLLFNMAGVTFRKFIPKCSKIVIDFDSINSRPSQKLQ,soluble
19,MGSDKIHHHHHHMQSIPHVDMRRYQNDFDAFTQDVGNGYEKYGFIALTQHGVDTALIERALDTCRELFALPEDVKKQYHRPGQGGARGYTPFGTEVAKDAKHVDLKEFWHVGREVEGEPAYPQLLPNVWPQELPKFKDDMLAIYAALDNLGNQVLEALSVYLGQPKDFFRNKVNNGNSILRPLHYPPIIDEDTPSVRAGAHEDINVLTLLVGSREPGLEVLAKDGTWVPVTIIEGAIICNVGDMLQRLTNHVLPSTTHRVVNPPAPFNEKSRYSIPFFLHFNPDVMITPLESCISDENPQRDEPITADDYLMQRLREIGLIKD,not soluble
20,MTRYLRLSGLEPFVLTPDIPFVNVGERTNVTGSARFRKLITNRDYAAALEVARDQVQNGAQILDVNMDEGLIDSKAAMVEFLNLIASEPDIARVPLMIDSSKWEVIEAGLKCVQGKPVVNSISLKEGEESFRRQAGLCLAYGAAVVVMAFDEEGQADSFARKTTICARAYRILVEEVGFPPEDIIFDPNVFAVATGIEEHDNYGVDFIEAARWIRANLPHAHVSGGVSNLSFSFRGNEPVREAMHAVFLYHAIRAGMDMGIVNAGQLAVYDQIDPDLREACEDVVLNRKPKQGGTATERLLALAER,not soluble
21,MDFHLRNKLNLPGNLPQPPNTNLNLPPNVPALLIQSSIKYSELEKFVRRGLHASGVFVIEDPTTTGVAQLKILSERWGDLPTAIDIQGRAQEYSLRYAAIFTLIDGNGEVVVPQQVIELSRDYRSPPVDATGTTTEREILVNELRRDMSASILRRIDSVIRSRLEKRELLEQAKPPSPATSGALEHHHHHH,not soluble
